Laboratory results published in paper PMC5952157.

Target: V5-HAX-1 (HCLS1-associated protein X-1) (human) (UniProt O00165)
Assay: co-IP

UniProt O00165, sequence (O00165 whole entry): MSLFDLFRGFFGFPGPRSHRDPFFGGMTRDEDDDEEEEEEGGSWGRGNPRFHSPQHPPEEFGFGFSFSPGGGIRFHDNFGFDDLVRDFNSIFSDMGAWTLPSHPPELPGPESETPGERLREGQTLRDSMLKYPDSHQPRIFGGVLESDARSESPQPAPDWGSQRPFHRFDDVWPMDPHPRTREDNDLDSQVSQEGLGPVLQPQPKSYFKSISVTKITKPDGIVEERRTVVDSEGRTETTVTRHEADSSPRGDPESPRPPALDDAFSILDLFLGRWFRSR

VN/1203 PB1-F2 coexpressed as competitor (Figure 8c) (natural protein)
percent decrease of HAX-1 bound to PA in the presence of PB1-F2: 80%
